In paper PMC10540216, “Activity Guided Azide-methyllysine Photo-trapping for Substrate Profiling of Lysine Demethylases” (Journal of the American Chemical Society, 2023):

Tested on: KDM4A-I71AzF
Experiment: CASI: photo-crosslinking with HEK293T cell extracts, StrepTactin enrichment and LC-MS/MS proteomics;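 further: lysates from HEK293T cells pretreated with a KDM4 inhibitor to raise proteome methylation, affinity-purified after ±UV, gel-resolved, trypsin-digested, with exclusive unique peptides per protein averaged per condition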
Assay type: binding, human
Details: sheet "Final results but with 0.01"

B1: DDX3X_HUMAN (protein, UniProt O00571 2-662, looked up)
ATP-dependent RNA helicase …: SHVAVENALGLDQQFAGLDLNSSDNQSGGSTASKGRYIPPHLRNREATKGFYDKDSSGWSSSKDKDAYSSFGSRSDSRGKSSFFSDRGSGSRGRFDDRGRSDYDGIGSRGDRSGFGKFERGGNSRWCDKSDEDDWSKPLPPSERLEQELFSGGNTGINFEKYDDIPVEATGNNCPPHIESFSDVEMGEIIMGNIELTRYTRPTPVQKHAIPIIKEKRDLMACAQTGSGKTAAFLLPILSQIYSDGPGEALRAMKENGRYGRRKQYPISLVLAPTRELAVQIYEEARKFSYRSRVRPCVVYGGADIGQQIRDLERGCHLLVATPGRLVDMMERGKIGLDFCKYLVLDEADRMLDMGFEPQIRRIVEQDTMPPKGVRHTMMFSATFPKEIQMLARDFLDEYIFLAVGRVGSTSENITQKVVWVEESDKRSFLLDLLNATGKDSLTLVFVETKKGADSLEDFLYHEGYACTSIHGDRSQRDREEALHQFRSGKSPILVATAVAARGLDISNVKHVINFDLPSDIEEYVHRIGRTGRVGNLGLATSFFNERNINITKDLLDLLVEAKQEVPSWLENMAYEHHYKGSSRGRSKSSRFSGGFGARDYRQSSGASSSSFSSSRASSSRSGGGGHGSSRGFGGGGYGGFYNSDGYGGNYNSQGVDWWGN
- Fold change (+UV/-UV): 0.7778

B2: CPSF6_HUMAN (protein, UniProt Q16630 1-551, looked up)
Cleavage and polyadenylation …: MADGVDHIDIYADVGEEFNQEAEYGGHDQIDLYDDVISPSANNGDAPEDRDYMDTLPPTVGDDVGKGAAPNVVYTYTGKRIALYIGNLTWWTTDEDLTEAVHSLGVNDILEIKFFENRANGQSKGFALVGVGSEASSKKLMDLLPKRELHGQNPVVTPCNKQFLSQFEMQSRKTTQSGQMSGEGKAGPPGGSSRAAFPQGGRGRGRFPGAVPGGDRFPGPAGPGGPPPPFPAGQTPPRPPLGPPGPPGPPGPPPPGQVLPPPLAGPPNRGDRPPPPVLFPGQPFGQPPLGPLPPGPPPPVPGYGPPPGPPPPQQGPPPPPGPFPPRPPGPLGPPLTLAPPPHLPGPPPGAPPPAPHVNPAFFPPPTNSGMPTSDSRGPPPTDPYGRPPPYDRGDYGPPGREMDTARTPLSEAEFEEIMNRNRAISSSAISRAVSDASAGDYGSAIETLVTAISLIKQSKVSADDRCKVLISSLQDCLHGIESKSYGSGSRRERSRERDHSRSREKSRRHKSRSRDRHDDYYRERSRERERHRDRDRDRDRERDREREYRHR
- Fold change (+UV/-UV): 0.875

B3: CALD1_HUMAN (protein, UniProt Q05682 1-793, looked up)
Caldesmon: MDDFERRRELRRQKREEMRLEAERIAYQRNDDDEEEAARERRRRARQERLRQKQEEESLGQVTDQVEVNAQNSVPDEEAKTTTTNTQVEGDDEAAFLERLARREERRQKRLQEALERQKEFDPTITDASLSLPSRRMQNDTAENETTEKEEKSESRQERYEIEETETVTKSYQKNDWRDAEENKKEDKEKEEEEEEKPKRGSIGENQVEVMVEEKTTESQEETVVMSLKNGQISSEEPKQEEEREQGSDEISHHEKMEEEDKERAEAERARLEAEERERIKAEQDKKIADERARIEAEEKAAAQERERREAEERERMREEEKRAAEERQRIKEEEKRAAEERQRIKEEEKRAAEERQRIKEEEKRAAEERQRARAEEEEKAKVEEQKRNKQLEEKKHAMQETKIKGEKVEQKIEGKWVNEKKAQEDKLQTAVLKKQGEEKGTKVQAKREKLQEDKPTFKKEEIKDEKIKKDKEPKEEVKSFMDRKKGFTEVKSQNGEFMTHKLKHTENTFSRPGGRASVDTKEAEGAPQVEAGKRLEELRRRRGETESEEFEKLKQKQQEAALELEELKKKREERRKVLEEEEQRRKQEEADRKLREEEEKRRLKEEIERRRAEAAEKRQKMPEDGLSDDKKPFKCFTPKGSSLKIEERAEFLNKSVQKSSGVKSTHQAAIVSKIDSRLEQYTSAIEGTKSAKPTKPAASDLPVPAEGVRNIKSMWEKGNVFSSPTAAGTPNKETAGLKVGVSSRINEWLTKTPDGNKSPAPKPSDLRPGDVSSKRNLWEKQSVDKVTSPTKV
- Fold change (+UV/-UV): 1.5

B4: CDC5L_HUMAN (protein, UniProt Q99459 1-802, looked up)
Cell division cycle 5-like …: MPRIMIKGGVWRNTEDEILKAAVMKYGKNQWSRIASLLHRKSAKQCKARWYEWLDPSIKKTEWSREEEEKLLHLAKLMPTQWRTIAPIIGRTAAQCLEHYEFLLDKAAQRDNEEETTDDPRKLKPGEIDPNPETKPARPDPIDMDEDELEMLSEARARLANTQGKKAKRKAREKQLEEARRLAALQKRRELRAAGIEIQKKRKRKRGVDYNAEIPFEKKPALGFYDTSEENYQALDADFRKLRQQDLDGELRSEKEGRDRKKDKQHLKRKKESDLPSAILQTSGVSEFTKKRSKLVLPAPQISDAELQEVVKVGQASEIARQTAEESGITNSASSTLLSEYNVTNNSVALRTPRTPASQDRILQEAQNLMALTNVDTPLKGGLNTPLHESDFSGVTPQRQVVQTPNTVLSTPFRTPSNGAEGLTPRSGTTPKPVINSTPGRTPLRDKLNINPEDGMADYSDPSYVKQMERESREHLRLGLLGLPAPKNDFEIVLPENAEKELEEREIDDTYIEDAADVDARKQAIRDAERVKEMKRMHKAVQKDLPRPSEVNETILRPLNVEPPLTDLQKSEELIKKEMITMLHYDLLHHPYEPSGNKKGKTVGFGTNNSEHITYLEHNPYEKFSKEELKKAQDVLVQEMEVVKQGMSHGELSSEAYNQVWEECYSQVLYLPGQSRYTRANLASKKDRIESLEKRLEINRGHMTTEAKRAAKMEKKMKILLGGYQSRAMGLMKQLNDLWDQIEQAHLELRTFEELKKHEDSAIPRRLECLKEDVQRQQEREKELQHRYADLLLEKETLKSKF
- Fold change (+UV/-UV): 0

B5: CX057_HUMAN (protein, UniProt Q6NSI4 1-855, looked up)
RPA-related protein RADX: MSGESGQPEAGPSHAGLDWPNPERNRAGVPGGVIRRAGSQGPRSWIQKVLEQIMDSPRQCVTPSEVVPVTVLAVQRYLLEDEPRDTVPKPPLYCYDVTISDGVYQEKCYLDPSLNSLVYQNILKVGIQMRISRVSCLYNEKRIGQGILCIDNVHCGETSDSISLETPFRNRAHQEKPERPLRGGKSHYLALWNNEDPYGDIWLTDKQPEEHNFSDTKIISLSHLEMTWTNRRNFPALLVRILHKSKLRYYGKPDKKMIEPYQTFLEVADSSGTVSVIMWNALCPEWYKSLRVGLVLLLQDYSVKKSYPFRIQPVPVDPQIKLISTMEICLNLRDPPTNIIIIPEKQVKPEWRLPKLNHRFTTRSELDDMPENCICDVIGLLVFVGRVQRSKKKENREDFWSYRWIHIADGTSEQPFIVELFSTSQPEIFENIYPMAYFVCTQLKVVRNDNQVPKLLYLTTTNESGVFITGHRGQPYTYDAKVKNFIQWIRTKSDSGEQKNMVIGGYYPYPPVPETFSKYSSSIKVESLLTAISEVRKEIEDLQYREQKRIAIQGIITAIKYIPHSSATESASASETLRNANRPSTSQAARVEIQERNGKRHQDDEPVNSQYFQTTSTNLSLSNKIRILQGPHANPVAVPQPGASVQTKGIKPGMPSIFNRRANINANLQGKARKTISDRWESQLWREKKFGLIDHLHYSRVYPESIPRKFMFEHRKFLSDQYNSQPAKYVPPEGRPPKLDDFKSARSLGHFEVTILGLNHEIAIDVAFLPMYCPEDIRTSQIDTLLTSMNYSCAYPQDTTGNDRLPGPRAVAGDIIKAATELDRVHIVGILDICNLGNNKVEVYLHKIYSPENTS
- Fold change (+UV/-UV): 0

B6: HXK2_HUMAN (protein, UniProt P52789 1-917, looked up)
Hexokinase-2: MIASHLLAYFFTELNHDQVQKVDQYLYHMRLSDETLLEISKRFRKEMEKGLGATTHPTAAVKMLPTFVRSTPDGTEHGEFLALDLGGTNFRVLWVKVTDNGLQKVEMENQIYAIPEDIMRGSGTQLFDHIAECLANFMDKLQIKDKKLPLGFTFSFPCHQTKLDESFLVSWTKGFKSSGVEGRDVVALIRKAIQRRGDFDIDIVAVVNDTVGTMMTCGYDDHNCEIGLIVGTGSNACYMEEMRHIDMVEGDEGRMCINMEWGAFGDDGSLNDIRTEFDQEIDMGSLNPGKQLFEKMISGMYMGELVRLILVKMAKEELLFGGKLSPELLNTGRFETKDISDIEGEKDGIRKAREVLMRLGLDPTQEDCVATHRICQIVSTRSASLCAATLAAVLQRIKENKGEERLRSTIGVDGSVYKKHPHFAKRLHKTVRRLVPGCDVRFLRSEDGSGKGAAMVTAVAYRLADQHRARQKTLEHLQLSHDQLLEVKRRMKVEMERGLSKETHASAPVKMLPTYVCATPDGTEKGDFLALDLGGTNFRVLLVRVRNGKWGGVEMHNKIYAIPQEVMHGTGDELFDHIVQCIADFLEYMGMKGVSLPLGFTFSFPCQQNSLDESILLKWTKGFKASGCEGEDVVTLLKEAIHRREEFDLDVVAVVNDTVGTMMTCGFEDPHCEVGLIVGTGSNACYMEEMRNVELVEGEEGRMCVNMEWGAFGDNGCLDDFRTEFDVAVDELSLNPGKQRFEKMISGMYLGEIVRNILIDFTKRGLLFRGRISERLKTRGIFETKFLSQIESDCLALLQVRAILQHLGLESTCDDSIIVKEVCTVVARRAAQLCGAGMAAVVDRIRENRGLDALKVTVGVDGTLYKLHPHFAKVMHETVKDLAPKCDVSFLQSEDGSGKGAALITAVACRIREAGQR
- Fold change (+UV/-UV): 0.7273

B7: AT2A2_HUMAN (protein, UniProt P16615 1-1042, looked up)
Sarcoplasmic/endoplasmic …: MENAHTKTVEEVLGHFGVNESTGLSLEQVKKLKERWGSNELPAEEGKTLLELVIEQFEDLLVRILLLAACISFVLAWFEEGEETITAFVEPFVILLILVANAIVGVWQERNAENAIEALKEYEPEMGKVYRQDRKSVQRIKAKDIVPGDIVEIAVGDKVPADIRLTSIKSTTLRVDQSILTGESVSVIKHTDPVPDPRAVNQDKKNMLFSGTNIAAGKAMGVVVATGVNTEIGKIRDEMVATEQERTPLQQKLDEFGEQLSKVISLICIAVWIINIGHFNDPVHGGSWIRGAIYYFKIAVALAVAAIPEGLPAVITTCLALGTRRMAKKNAIVRSLPSVETLGCTSVICSDKTGTLTTNQMSVCRMFILDRVEGDTCSLNEFTITGSTYAPIGEVHKDDKPVNCHQYDGLVELATICALCNDSALDYNEAKGVYEKVGEATETALTCLVEKMNVFDTELKGLSKIERANACNSVIKQLMKKEFTLEFSRDRKSMSVYCTPNKPSRTSMSKMFVKGAPEGVIDRCTHIRVGSTKVPMTSGVKQKIMSVIREWGSGSDTLRCLALATHDNPLRREEMHLEDSANFIKYETNLTFVGCVGMLDPPRIEVASSVKLCRQAGIRVIMITGDNKGTAVAICRRIGIFGQDEDVTSKAFTGREFDELNPSAQRDACLNARCFARVEPSHKSKIVEFLQSFDEITAMTGDGVNDAPALKKAEIGIAMGSGTAVAKTASEMVLADDNFSTIVAAVEEGRAIYNNMKQFIRYLISSNVGEVVCIFLTAALGFPEALIPVQLLWVNLVTDGLPATALGFNPPDLDIMNKPPRNPKEPLISGWLFFRYLAIGCYVGAATVGAAAWWFIAADGGPRVSFYQLSHFLQCKEDNPDFEGVDCAIFESPYPMTMALSVLVTIEMCNALNSLSENQSLLRMPPWENIWLVGSICLSMSLHFLILYVEPLPLIFQITPLNVTQWLMVLKISLPVILMDETLKFVARNYLEPGKECVQPATKSCSFSACTDGISWPFVLLIMPLVIWVYSTDTNFSDMFWS
- Fold change (+UV/-UV): 0.75
